The supplement of paper PMC5998384

Experiments:
[1] = system: HeLa Kyoto; assay: solubility in G1/S (NP-40 vs SDS abundance) (log2 ratio); higher = more soluble; conditions: cell cycle stage: G1/S
[2] = system: HeLa Kyoto; assay: melting temperature (median over replicates), in situ; higher = more thermally stable
[3] = system: HeLa Kyoto; assay: solubility change mitosis vs G1/S (difference of NP-40 vs SDS log2 ratios) (log2 ratio difference); higher = more soluble in mitosis
[4] = system: HeLa Kyoto; assay: thermal stability score vs G1/S (z-score of summed log2 fold changes over temperatures); higher = more thermally stable than in G1/S
[5] = cell cycle stage: early G1 (4.5 h after nocodazole release)
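Wherever melting temperature (median over replicates), in situ is given: HeLa Kyoto cells synchronized by double thymidine or nocodazole block, proteins quantified by TMT10plex mass spectrometry, three independent biological replicates.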
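Wherever solubility change mitosis vs G1/S (difference of NP-40 vs SDS log2 ratios) is given: synchronized HeLa Kyoto cells (double thymidine block for G1/S, nocodazole release for mitosis), protein amounts in NP-40 versus SDS lysates quantified by mass spectrometry, three biological replicates.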
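Wherever solubility in G1/S (NP-40 vs SDS abundance) is given: HeLa Kyoto cells arrested at G1/S by double thymidine block, proteins quantified by TMT10plex mass spectrometry in mild NP-40 versus SDS extracts, three biological replicates.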
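Wherever thermal stability score vs G1/S (z-score of summed log2 fold changes over temperatures) is given: synchronized HeLa Kyoto cells, proteins quantified by TMT10plex mass spectrometry, three biological replicates, mitosis taken 0.5 h after nocodazole release, G1/S directly after double thymidine block.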

“MWRVCARRAQNVAPWAGLEARWTALQEVPGTPRVTSRSGPAPARRNSVTTGYGGVRALCGWTPSSGATPRNRLLLQLLGSPGRRYYSLPPHQKVPLPSLSPTMQAGTIARWEKKEGDKINEGDLIAEVETDKATVGFESLEECYMAKILVAEGTRDVPIGAIICITVGKPEDIEAFKNYTLDSSAAPTPQAAPAPTPAATASPPTPSAQAPGSSYPPHMQVLLPALSPTMTMGTVQRWEKKVGEKLSEGDLLAEIETDKATIGFEVQEEGYLAKILVPEGTRDVPLGTPLCIIVEKEADISAFADYRPTEVTDLKPQVPPPTPPPVAAVPPTPQPLAPTPSAPCPATPAGPKGRVFVSPLAKKLAVEKGIDLTQVKGTGPDGRITKKDIDSFVPSKVAPAPAAVVPPTGPGMAPVPTGVFTDIPISNIRRVIAQRLMQSKQTIPHYYLSIDVNMGEVLLVRKELNKILEGRSKISVNDFIIKASALACLKVPEANSSWMDTVIRQNHVVDVSVAVSTPAGLITPIVFNAHIKGVETIANDVVSLATKAREGKLQPHEFQGGTFTISNLGMFGIKNFSAIINPPQACILAIGASEDKLVPADNEKGFDVASMMSVTLSCDHRVVDGAVGAQWLAEFRKYLEKPITMLL [DLAT]” was tested, and the “solubility in G1/S (log2)” value [1] was 0.263, the melting temperature ([2]; cell cycle stage: G1/S) was 54 °C and the melting temperature ([2]; cell cycle stage: mitosis) was 52.3 °C. The “solubility change mitosis (log2)” value [3] was -0.12, the thermal stability score [4, 5] was -1.61 and the thermal stability score ([4]; cell cycle stage: mitosis) was -3.92.
“MLLPLLLLLPMCWAVEVKRPRGVSLTNHHFYDESKPFTCLDGSATIPFDQVNDDYCDCKDGSDEPGTAACPNGSFHCTNTGYKPLYIPSNRVNDGVCDCCDGTDEYNSGVICENTCKEKGRKERESLQQMAEVTREGFRLKKILIEDWKKAREEKQKKLIELQAGKKSLEDQVEMLRTVKEEAEKPEREAKEQHQKLWEEQLAAAKAQQEQELAADAFKELDDDMDGTVSVTELQTHPELDTDGDGALSEAEAQALLSGDTQTDATSFYDRVWAAIRDKYRSEALPTDLPAPSAPDLTEPKEEQPPVPSSPTEEEEEEEEEEEEEAEEEEEEEDSEEAPPPLSPPQPASPAEEDKMPPYDEQTQAFIDAAQEARNKFEEAERSLKDMEESIRNLEQEISFDFGPNGEFAYLYSQCYELTTNEYVYRLCPFKLVSQKPKLGGSPTSLGTWGSWIGPDHDKFSAMKYEQGTGCWQGPNRSTTVRLLCGKETMVTSTTEPSRCEYLMELMTPAACPEPPPEAPTEDDHDEL [PRKCSH]” was tested, and the “solubility in G1/S (log2)” value [1] was 0.337, the melting temperature ([2]; cell cycle stage: G1/S) was 55 °C and the melting temperature ([2]; cell cycle stage: mitosis) was 57.4 °C. For the same substance, the “solubility change mitosis (log2)” value [3] was -0.0303, the thermal stability score [4, 5] was 0.00878 and the thermal stability score ([4]; cell cycle stage: mitosis) was 0.443.
For “MSRFPAVAGRAPRRQEEGERSRDLQEERLSAVCIADREEKGCTSQEGGTTPTFPIQKQRKKIIQAVRDNSFLIVTGNTGSGKTTQLPKYLYEAGFSQHGMIGVTQPRKVAAISVAQRVAEEMKCTLGSKVGYQVRFDDCSSKETAIKYMTDGCLLKHILGDPNLTKFSVIILDEAHERTLTTDILFGLLKKLFQEKSPNRKEHLKVVVMSATMELAKLSAFFGNCPIFDIPGRLYPVREKFCNLIGPRDRENTAYIQAIVKVTMDIHLNEMAGDILVFLTGQFEIEKSCELLFQMAESVDYDYDVQDTTLDGLLILPCYGSMTTDQQRRIFLPPPPGIRKCVISTNISATSLTIDGIRYVVDGGFVKQLNHNPRLGLDILEVVPISKSEALQRSGRAGRTSSGKCFRIYSKDFWNQCMPDHVIPEIKRTSLTSVVLTLKCLAIHDVIRFPYLDPPNERLILEALKQLYQCDAIDRSGHVTRLGLSMVEFPLPPHLTCAVIKAASLDCEDLLLPIAAMLSVENVFIRPVDPEYQKEAEQRHRELAAKAGGFNDFATLAVIFEQCKSSGAPASWCQKHWIHWRCLFSAFRVEAQLRELIRKLKQQSDFPKETFEGPKHEVLRRCLCAGYFKNVARRSVGRTFCTMDGRGSPVHIHPSSALHEQETKLEWIIFHEVLVTTKVYARIVCPIRYEWVRDLLPKLHEFNAHDLSSVARREVREDARRRWTNKENVKQLKDGISKDVLKKMQRRNDDKSISDARARFLERKQQRTQDHSDTRKETG [DHX40]”, the “solubility in G1/S (log2)” value [1] was -0.176, the melting temperature ([2]; cell cycle stage: G1/S) was 51.7 °C and the melting temperature ([2]; cell cycle stage: mitosis) was 50.2 °C. The “solubility change mitosis (log2)” value [3] was -0.071, the thermal stability score [4, 5] was 0.738 and the thermal stability score ([4]; cell cycle stage: mitosis) was 1.62.
“MELDSALEAPSQEDSNLSEELSHSAFGQAFSKILHCLARPEARRGNVKDAVLKDLGDLIEATEFDRLFEGTGARLRGMPETLGQVAKALEKYAAPSKEEEGGGDGHSEAAEKAAQVGLLFLKLLGKVETAKNSLVGPAWQTGLHHLAGPVYIFAITHSLEQPWTTPRSREVAREVLTSLLQVTECGSVAGFLHGENEDEKGRLSVILGLLKPDLYKESWKNNPAIKHVFSWTLQQVTRPWLSQHLERVLPASLVISDDYQTENKILGVHCLHHIVLNVPAADLLQYNRAQVLYHAISNHLYTPEHHLIQAVLLCLLDLFPILEKTLHWKGDGARPTTHCDEVLRLILTHMEPEHRLLLRRTYARNLPAFVNRLGILTVRHLKRLERVIIGYLEVYDGPEEEARLKILETLKLLMQHTWPRVSCRLVVLLKALLKLICDVARDPNLTPESVKSALLQEATDCLILLDRCSQGRVKGLLAKIPQSCEDRKVVNYIRKVQQVSEGAPYNGT [TTI2]” was tested, and the “solubility in G1/S (log2)” value [1] was 0.208, the melting temperature ([2]; cell cycle stage: G1/S) was 50.5 °C and the melting temperature ([2]; cell cycle stage: mitosis) was 49.7 °C. For the same substance, the “solubility change mitosis (log2)” value [3] was -0.201, the thermal stability score [4, 5] was 0.152 and the thermal stability score ([4]; cell cycle stage: mitosis) was 0.904.
For “MGGCTVKPQLLLLALVLHPWNPCLGADSEKPSSIPTDKLLVITVATKESDGFHRFMQSAKYFNYTVKVLGQGEEWRGGDGINSIGGGQKVRLMKEVMEHYADQDDLVVMFTECFDVIFAGGPEEVLKKFQKANHKVVFAADGILWPDKRLADKYPVVHIGKRYLNSGGFIGYAPYVNRIVQQWNLQDNDDDQLFYTKVYIDPLKREAINITLDHKCKIFQTLNGAVDEVVLKFENGKARAKNTFYETLPVAINGNGPTKILLNYFGNYVPNSWTQDNGCTLCEFDTVDLSAVDVHPNVSIGVFIEQPTPFLPRFLDILLTLDYPKEALKLFIHNKEVYHEKDIKVFFDKAKHEIKTIKIVGPEENLSQAEARNMGMDFCRQDEKCDYYFSVDADVVLTNPRTLKILIEQNRKIIAPLVTRHGKLWSNFWGALSPDGYYARSEDYVDIVQGNRVGVWNVPYMANVYLIKGKTLRSEMNERNYFVRDKLDPDMALCRNAREMGVFMYISNRHEFGRLLSTANYNTSHYNNDLWQIFENPVDWKEKYINRDYSKIFTENIVEQPCPDVFWFPIFSEKACDELVEEMEHYGKWSGGKHHDSRISGGYENVPTDDIHMKQVDLENVWLHFIREFIAPVTLKVFAGYYTKGFALLNFVVKYSPERQRSLRPHHDASTFTINIALNNVGEDFQGGGCKFLRYNCSIESPRKGWSFMHPGRLTHLHEGLPVKNGTRYIAVSFIDP [PLOD2]”, the “solubility in G1/S (log2)” value [1] was 0.13, the melting temperature ([2]; cell cycle stage: G1/S) was 53.9 °C and the melting temperature ([2]; cell cycle stage: mitosis) was 54.6 °C. The “solubility change mitosis (log2)” value [3] was -0.123, the thermal stability score [4, 5] was 3.26 and the thermal stability score ([4]; cell cycle stage: mitosis) was 4.23.
With “MEESHFNSNPYFWPSIPTVSGQIENTMFINKMKDQLLPEKGCGLAPPHYPTLLTVPASVSLPSGISMDTESKSDQLTPHSQASVTQNITVVPVPSTGLMTAGVSCSQRWRREGSQSRGPGLVITSPSGSLVTTASSAQTFPISAPMIVSALPPGSQALQVVPDLSKKVASTLTEEGGGGGGGGGSVAPKPPRGRKKKRMLESGLPEMNDPYVLSPEDDDDHQKDGKTYRCRMCSLTFYSKSEMQIHSKSHTETKPHKCPHCSKTFANSSYLAQHIRIHSGAKPYSCNFCEKSFRQLSHLQQHTRIHSKMHTETIKPHKCPHCSKTFANTSYLAQHLRIHSGAKPYNCSYCQKAFRQLSHLQQHTRIHTGDRPYKCAHPGCEKAFTQLSNLQSHRRQHNKDKPFKCHNCHRAYTDAASLEVHLSTHTVKHAKVYTCTICSRAYTSETYLMKHMRKHNPPDLQQQVQAAAAAAAVAQAQAQAQAQAQAQAQAQAQAQASQASQQQQQQQQQQQQQQQQPPPHFQSPGAAPQGGGGGDSNPNPPPQCSFDLTPYKTAEHHKDICLTVTTSTIQVEHLASS [ZNF384]” the “solubility in G1/S (log2)” value [1] was -0.109, the melting temperature ([2]; cell cycle stage: G1/S) was 51.6 °C and the melting temperature ([2]; cell cycle stage: mitosis) was 52.4 °C. For the same substance, the “solubility change mitosis (log2)” value [3] was 0.0582, the thermal stability score [4, 5] was -0.69 and the thermal stability score ([4]; cell cycle stage: mitosis) was -1.1.
With “MLAARLVCLRTLPSRVFHPAFTKASPVVKNSITKNQWLLTPSREYATKTRIGIRRGRTGQELKEAALEPSMEKIFKIDQMGRWFVAGGAAVGLGALCYYGLGLSNEIGAIEKAVIWPQYVKDRIHSTYMYLAGSIGLTALSAIAISRTPVLMNFMMRGSWVTIGVTFAAMVGAGMLVRSIPYDQSPGPKHLAWLLHSGVMGAVVAPLTILGGPLLIRAAWYTAGIVGGLSTVAMCAPSEKFLNMGAPLGVGLGLVFVSSLGSMFLPPTTVAGATLYSVAMYGGLVLFSMFLLYDTQKVIKRAEVSPMYGVQKYDPINSMLSIYMDTLNIFMRVATMLATGGNRKK [GHITM]” the “solubility in G1/S (log2)” value [1] was -0.101, the melting temperature ([2]; cell cycle stage: G1/S) was 54.7 °C and the melting temperature ([2]; cell cycle stage: mitosis) was 55.1 °C. The “solubility change mitosis (log2)” value [3] was 0.0227, the thermal stability score [4, 5] was -2.96 and the thermal stability score ([4]; cell cycle stage: mitosis) was -4.77.
In the case of DOCK1, the “solubility in G1/S (log2)” value [1] was -0.195, the melting temperature ([2]; cell cycle stage: G1/S) was 50.7 °C and the melting temperature ([2]; cell cycle stage: mitosis) was 50 °C. The “solubility change mitosis (log2)” value [3] was -0.0711, the thermal stability score [4, 5] was 0.388 and the thermal stability score ([4]; cell cycle stage: mitosis) was 0.518.
